From US10117916B2, “Peptides and combination of peptides for use in immunotherapy against CLL and other cancers” (immatics biotechnologies GmbH, priority 2015, dated 2018) come the findings set out here.

The assay concerns the target HLA-A*02:01 (Homo sapiens, UniProt P04439, D140Y/D185E/D98H/E176V/E277Q/G131W/G231S/I119V/I121R/I166T/I218V/L300P/L318F/N151K/N90K/P208A/P217A/Q86G/Q94H/R138H/R169H/T345S). Description: MHC binding assay: UV-ligand exchange with β2m ELISA (peptide exchange yield). The conditions noted are these: MHC class I binding score; binding to HLA-A*02:01 ranged by peptide exchange yield (UV-ligand exchange, β2m ELISA). The method in brief:
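Binding capacity is expressed as the yield of UV-mediated ligand exchange, reflecting how well each peptide stabilizes peptide-receptive MHC. Stabilized complexes are read out by anti-β2m HRP ELISA (450 nm) after streptavidin capture, with refolded MLA-001 monomer standards for quantitation.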

Consider “173 (TVIENIHTI; listed as Homo sapiens) [compound 173]”, for which the “Peptide Exchange” value is “″++″ (≥20% = ++)”. To “174 (VLAELPIIVV; listed as Homo sapiens) [compound 174]” belongs “″+++″ (≥50 = +++)”; to “175 (FTVPRVVAV; listed as Homo sapiens) [compound 175]”, “″+++″ (≥50 = +++)”. Regarding “176 (VLAEQNIIPSA; listed as Homo sapiens) [compound 176]”, the “Peptide Exchange” value is recorded as “″+++″ (≥50 = +++)”.

As to “177 (VLDDRELLL; listed as Homo sapiens) [compound 177]”, the “Peptide Exchange” value is “″+++″ (≥50 = +++)”. Under “178 (VLFFNVQEV; listed as Homo sapiens) [compound 178]” stands “″+++″ (≥50 = +++)”. For the substance “179 (VLLGLEMTL; listed as Homo sapiens) [compound 179]”, the “Peptide Exchange” value is “″+++″ (≥50 = +++)”. Under “180 (LLKDGPEIGL; listed as Homo sapiens) [compound 180]” stands “″++″ (≥20% = ++)”; under “181 (VLLSIPFVSV; listed as Homo sapiens) [compound 181]”, “″+++″ (≥50 = +++)”; under “182 (VLLSVPGPPV; listed as Homo sapiens) [compound 182]”, “″+++″ (≥50 = +++)”. Under “183 (VLMPTVYQQGV; listed as Homo sapiens) [compound 183]” stands “″+++″ (≥50 = +++)”; under “184 (VLSHNLYTV; listed as Homo sapiens) [compound 184]”, “″+++″ (≥50 = +++)”. On to “185 (VMDDQRDLI; listed as Homo sapiens) [compound 185]”, for which the “Peptide Exchange” value was “″++″ (≥20% = ++)”. Regarding “186 (VMDPTKILI; listed as Homo sapiens) [compound 186]”, the “Peptide Exchange” value is reported as “″++++″ (≥75% = ++++)”. Under “187 (VMDTHLVNI; listed as Homo sapiens) [compound 187]” stands “″++++″ (≥75% = ++++)”. Under “188 (VMGDIPAAV; listed as Homo sapiens) [compound 188]” stands “″++″ (≥20% = ++)”; under “189 (VMLEMTPEL; listed as Homo sapiens) [compound 189]”, “″+++″ (≥50 = +++)”; under “190 (VVMGTVPRL; listed as Homo sapiens) [compound 190]”, “″+++″ (≥50 = +++)”. On to “191 (YIFDGSDGGV; listed as Homo sapiens) [compound 191]”, for which the “Peptide Exchange” value is recorded as “″+++″ (≥50 = +++)”. To “193 (YLDLSNNRL; listed as Homo sapiens) [compound 193]” belongs “″+++″ (≥50 = +++)”; to “194 (YLDNVLAEL; listed as Homo sapiens) [compound 194]”, “″++++″ (≥75% = ++++)”.

Regarding “195 (YLGGFALSV; listed as Homo sapiens) [compound 195]”, the “Peptide Exchange” value was “″++++″ (≥75% = ++++)”.

As for “196 (YLLLQTYVL; listed as Homo sapiens) [compound 196]”, the “Peptide Exchange” value is recorded as “″+″ (≥10% = +)”.

For the substance “198 (YLTFLPAEV; listed as Homo sapiens) [compound 198]”, the “Peptide Exchange” value is listed as “″+++″ (≥50 = +++)”. To “199 (YLVELSSLL; listed as Homo sapiens) [compound 199]” belongs “″++++″ (≥75% = ++++)”; to “203 (ALLSSQLAL; listed as Homo sapiens) [compound 203]”, “″+++″ (≥50 = +++)”; to “204 (GLLQINDKIAL; listed as Homo sapiens) [compound 204]”, “″+++″ (≥50 = +++)”. Take “205 (GLSQANFTL; listed as Homo sapiens) [compound 205]”: the “Peptide Exchange” value is reported as “″+++″ (≥50 = +++)”. Regarding “206 (HMQDVRVLL; listed as Homo sapiens) [compound 206]”, the “Peptide Exchange” value is on record as “″+++″ (≥50 = +++)”. Under “207 (IIADLDTTIMFA; listed as Homo sapiens) [compound 207]” stands “″+++″ (≥50 = +++)”; under “208 (ILLKTEGINL; listed as Homo sapiens) [compound 208]”, “″+++″ (≥50 = +++)”; under “209 (ILQAELPSL; listed as Homo sapiens) [compound 209]”, “″+++″ (≥50 = +++)”. To “210 (KLLVQDFFL; listed as Homo sapiens) [compound 210]” belongs “″+++″ (≥50 = +++)”; to “211 (LIDVKPLGV; listed as Homo sapiens) [compound 211]”, “″+++″ (≥50 = +++)”. To “214 (RLQELTEKL; listed as Homo sapiens) [compound 214]” belongs “″+++″ (≥50 = +++)”; to “215 (VMQDIVYKL; listed as Homo sapiens) [compound 215]”, “″+++″ (≥50 = +++)”.

As to “216 (WLAGDVPAA; listed as Homo sapiens) [compound 216]”, the “Peptide Exchange” value is on record as “″+++″ (≥50 = +++)”. Under “217 (ALDEPPYLTV; listed as Homo sapiens) [compound 217]” stands “″+++″ (≥50 = +++)”.

“218 (ALGEEWKGYVV; listed as Homo sapiens) [compound 218]”: the “Peptide Exchange” value was “″++″ (≥20% = ++)”. “219 (ALLNLLESA; listed as Homo sapiens) [compound 219]”: the “Peptide Exchange” value was “″+++″ (≥50 = +++)”. Under “221 (ALVSTIIMV; listed as Homo sapiens) [compound 221]” stands “″+″ (≥10% = +)”. Turning to “222 (ALWELSLKI; listed as Homo sapiens) [compound 222]”, the “Peptide Exchange” value is recorded as “″+++″ (≥50 = +++)”. On to “223 (ALWVSQPPEI; listed as Homo sapiens) [compound 223]”, for which the “Peptide Exchange” value was “″+++″ (≥50 = +++)”.

“224 (AMEALVVEV; listed as Homo sapiens) [compound 224]”: the “Peptide Exchange” value is “″+++″ (≥50 = +++)”. In the case of “225 (ILQERELLPV; listed as Homo sapiens) [compound 225]”, the “Peptide Exchange” value was “″+++″ (≥50 = +++)”. To “226 (AMNISVPQV; listed as Homo sapiens) [compound 226]” belongs “″+++″ (≥50 = +++)”. Consider “227 (FLAEASVMTQL; listed as Homo sapiens) [compound 227]”, for which the “Peptide Exchange” value was “″+++″ (≥50 = +++)”. “228 (FLGGLSPGV; listed as Homo sapiens) [compound 228]”: the “Peptide Exchange” value was “″+++″ (≥50 = +++)”.

For the substance “229 (FLLNLQNCHL; listed as Homo sapiens) [compound 229]”, the “Peptide Exchange” value is recorded as “″++++″ (≥75% = ++++)”. Under “230 (FLQDSKVIFV; listed as Homo sapiens) [compound 230]” stands “″+++″ (≥50 = +++)”.

For the substance “231 (FLYIRQLAI; listed as Homo sapiens) [compound 231]”, the “Peptide Exchange” value is given as “″+++″ (≥50 = +++)”.

As for “232 (FMHQIIDQV; listed as Homo sapiens) [compound 232]”, the “Peptide Exchange” value is given as “″++++″ (≥75% = ++++)”. Under “233 (GIIDINVRL; listed as Homo sapiens) [compound 233]” stands “″++″ (≥20% = ++)”; under “234 (GLDDAEYAL; listed as Homo sapiens) [compound 234]”, “″++″ (≥20% = ++)”.

Turning to “235 (GLDDLLLFL; listed as Homo sapiens) [compound 235]”, the “Peptide Exchange” value is reported as “″+++″ (≥50 = +++)”. With “236 (GLLESGRHYL; listed as Homo sapiens) [compound 236]”, the “Peptide Exchange” value is recorded as “″+++″ (≥50 = +++)”. Turning to “237 (GLQENLDVVV; listed as Homo sapiens) [compound 237]”, the “Peptide Exchange” value was “″++++″ (≥75% = ++++)”. With “238 (GLVETELQL; listed as Homo sapiens) [compound 238]”, the “Peptide Exchange” value is reported as “″+++″ (≥50 = +++)”.

With “239 (ILAGEMLSV; listed as Homo sapiens) [compound 239]”, the “Peptide Exchange” value is “″+++″ (≥50 = +++)”. Under “241 (ILGDILLKV; listed as Homo sapiens) [compound 241]” stands “″+++″ (≥50 = +++)”. Under “242 (ILLGIQELL; listed as Homo sapiens) [compound 242]” stands “″+++″ (≥50 = +++)”; under “243 (ILPTLEKELFL; listed as Homo sapiens) [compound 243]”, “″+++″ (≥50 = +++)”; under “244 (ILQALAVHL; listed as Homo sapiens) [compound 244]”, “″+++″ (≥50 = +++)”. To “245 (KIMDYSLLLGV; listed as Homo sapiens) [compound 245]” belongs “″++++″ (≥75% = ++++)”; to “246 (KLDETGVAL; listed as Homo sapiens) [compound 246]”, “″++″ (≥20% = ++)”; to “247 (KLKDRLPSI; listed as Homo sapiens) [compound 247]”, “″++″ (≥20% = ++)”. Turning to “248 (KTVEPPISQV; listed as Homo sapiens) [compound 248]”, the “Peptide Exchange” value was “″++″ (≥20% = ++)”. To “249 (LLPTGVFQV; listed as Homo sapiens) [compound 249]” belongs “″+++″ (≥50 = +++)”; to “250 (LLVQEPDGLMV; listed as Homo sapiens) [compound 250]”, “″+++″ (≥50 = +++)”; to “251 (LLYDNVPGA; listed as Homo sapiens) [compound 251]”, “″+++″ (≥50 = +++)”.
